Measurements: IntAct's records for PubMed 21385318

B1: Kinase non-catalytic C-lobe domain-containing protein 1 (Mus musculus), Q0KK55 (parent)
chain: MQAMDPASRGFYEEDGKDLDFYDFEPLPTLPEDEENVSLADILSLRDRGLSEQEAWAVCLECSLSMRSVAHAAIFQTLCITPDTLAFNTSGNVCFMEQLSDDPEGAFVPPEFDLTGNTFEAHIYSLGATLKAALEYVPEPELEPKLSTDLEGLLSQMQAEDPRERPDLASIIALCEEKMQPVSSCRLCRSLSAIGRRVLSIESFGAFQELSENTWRGRPAPRNVGPKKMPGDLSTDPEALFPSKGLLQPPASRDAEQEAGQRPRAPSPKPLLSAPVRNGENPGQEGLADLVLDARCPLGELDRDNLRRSRLKKAQTFPRLLQESTETSTLCLSLNGSRNQLAISEFFPPDPRKLFLEGKNGLSGFKTQSKSRLWPEQEPGVQLDKTPGAGRNPHRSPGASGQLEASSPSQGSVEYKPSPSPVDAGDSDHEGHIPRSEEKIPEESRQPGSTATEQSLSLKDLLSKLGRPFREYELWALCLSCLSTLQTHKEHPAHLCLDNVLVAEDGTVFFGPPPANGAYNSLFLAPEVSEEKLVTEKASVYCVAAVLWTAAKFSVPRDHKLALPRRLKTLLLDMARRHASERPSAAEAIKVCSSYLLQRGMDSSKILAHLRASTCKVHPEEETIGLQNAFSVVELKSTTAPAPESSPGFLQVSNDTKLVAVPGPVPGLPPCCKEACELPAAFTSEATHFKPIVLAQDASVTRDQLALPSESNEKPKEGSGHLDREGTRKQAALELVEATDLKMSNQLSPGPELQGATPDPDGDSGSPSSATECSCPHGPALVTQQKGTSGTPSSPASSLPPEHRPDGEGPLGTTVLPGPTSASQGSRHPCKPPRGKAAASPSSPRGSDGHPEKPRPADRKLCPSSVDTSSPPKMTACPSLQEAMRLIQEEFAFDGYMDNGLEALIMGEYIYALKDLTFATFCGAISEKFCDLYWDEQLLKNLFKVVNGPASPSESTSEEPGSQPEHSPSRCSLSSKRPSLHGLGKEKPATTWGSGGPCSPTALSDIDSDTLSQGNFEVGFRSQKSIKVTREQQPEAEVGGQPGPSQDSTSHASDTVARLARSEDGGPAGSPGASDFQNCSPGWSSAFYEADCFGADVYNYVKDLERQKTNGHTELEAQSPELEQQLMIEKRNYRKTLKFYQKLLQKEKRNKGSEVRTMLSKLRGQLDEMKSKVQFLSLVKKYLQVMYAERWGLEPCALPVIVNIAAAPCDTLDFSPLDESSSLIFYNVNKHPGSGRQKKARILQAGTPLGLMAYLYSSDAFLEGYVQQFLYTFRYFCTPHDFLHFLLDRISSTLSRAHQDPTSTFTKIYRRSLCVLQAWVEDCYTVDFIRNAGLLGQLEDFISSKILPLDGTAEHLLALLEVGTERRADSASRGADLEDPKEAEEDTRPFNALCKRFSEDGITRKSFSWRLPRGNGLVLPHHKERQYTIASALPKPCFFEDFYGPYAKASEKGPYFLTEYSTNQLFTQLTLLQQELFQKCHPVHFLNSRALGVMDKSAAIPKASSSESLSAKTCSLFLPNYVQDKYLLQLLRNADDVSTWVAAEIVTSHTSKLQVNLLSKFLLIAKSCYEQRNFATAMQILGGLEHLAVRQSPAWRILPAKIAEVMEELKAVEVFLKSDSLCLMEGRRFRAQPTLPSAHLLAMHIQQLETGGFTMTNGAHRWSKLRNIAKVASQVHAFQENPYTFSPDPKLQAHLKQRIARFSGADVSILAADNRANFHQIPGEKHSRKIQDKLRRMKATFQ

Variants of: B1
Details: with mtap2_mouse Map2, P20357
Chain of mtap2_mouse Map2, P20357 (P20357 whole entry): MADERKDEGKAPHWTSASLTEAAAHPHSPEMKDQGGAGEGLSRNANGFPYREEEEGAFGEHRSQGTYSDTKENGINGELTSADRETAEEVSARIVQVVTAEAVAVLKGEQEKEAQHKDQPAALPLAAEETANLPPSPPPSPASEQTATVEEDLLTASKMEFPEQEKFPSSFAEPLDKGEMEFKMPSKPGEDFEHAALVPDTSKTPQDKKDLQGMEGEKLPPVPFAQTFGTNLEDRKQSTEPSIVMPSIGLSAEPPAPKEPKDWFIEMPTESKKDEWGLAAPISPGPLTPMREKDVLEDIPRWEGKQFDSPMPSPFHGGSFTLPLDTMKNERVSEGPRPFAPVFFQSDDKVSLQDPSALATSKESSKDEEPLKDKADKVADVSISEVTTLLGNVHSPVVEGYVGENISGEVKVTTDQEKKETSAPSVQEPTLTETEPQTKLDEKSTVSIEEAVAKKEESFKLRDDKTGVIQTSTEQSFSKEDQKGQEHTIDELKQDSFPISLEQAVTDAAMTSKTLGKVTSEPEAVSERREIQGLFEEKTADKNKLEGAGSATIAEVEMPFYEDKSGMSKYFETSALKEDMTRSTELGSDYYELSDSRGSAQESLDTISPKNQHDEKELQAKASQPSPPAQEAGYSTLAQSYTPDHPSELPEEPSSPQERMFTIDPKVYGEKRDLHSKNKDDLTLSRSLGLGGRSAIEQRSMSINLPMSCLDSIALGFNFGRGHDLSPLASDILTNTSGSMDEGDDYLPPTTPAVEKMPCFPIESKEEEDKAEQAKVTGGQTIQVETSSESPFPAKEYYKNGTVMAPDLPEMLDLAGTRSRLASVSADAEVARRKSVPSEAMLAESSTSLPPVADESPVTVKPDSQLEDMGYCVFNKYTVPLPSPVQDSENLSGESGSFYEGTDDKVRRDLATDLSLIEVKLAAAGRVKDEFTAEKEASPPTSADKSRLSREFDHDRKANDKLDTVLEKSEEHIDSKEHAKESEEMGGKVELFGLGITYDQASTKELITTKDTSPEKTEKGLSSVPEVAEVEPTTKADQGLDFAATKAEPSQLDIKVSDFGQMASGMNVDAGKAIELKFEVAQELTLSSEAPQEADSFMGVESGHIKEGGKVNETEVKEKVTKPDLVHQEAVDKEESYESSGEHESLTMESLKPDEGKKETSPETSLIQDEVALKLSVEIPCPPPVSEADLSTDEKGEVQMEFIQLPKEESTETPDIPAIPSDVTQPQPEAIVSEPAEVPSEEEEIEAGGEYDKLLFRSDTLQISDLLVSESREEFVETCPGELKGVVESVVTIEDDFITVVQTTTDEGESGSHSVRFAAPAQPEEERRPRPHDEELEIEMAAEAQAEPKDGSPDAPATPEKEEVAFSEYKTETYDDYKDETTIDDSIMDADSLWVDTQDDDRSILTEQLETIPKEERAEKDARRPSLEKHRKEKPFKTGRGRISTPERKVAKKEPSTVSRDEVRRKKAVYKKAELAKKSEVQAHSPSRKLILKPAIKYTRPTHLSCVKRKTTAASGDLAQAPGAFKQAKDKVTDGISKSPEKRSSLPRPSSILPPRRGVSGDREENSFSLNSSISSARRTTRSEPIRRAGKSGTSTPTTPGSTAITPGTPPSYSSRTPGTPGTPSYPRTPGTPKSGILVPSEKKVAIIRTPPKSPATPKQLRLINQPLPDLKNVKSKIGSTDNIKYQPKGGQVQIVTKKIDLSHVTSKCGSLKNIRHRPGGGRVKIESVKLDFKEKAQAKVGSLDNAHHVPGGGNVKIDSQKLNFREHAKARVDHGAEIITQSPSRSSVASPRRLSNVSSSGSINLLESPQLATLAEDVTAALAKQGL

Row | effect of a mutation on the interaction | Variant
1 | disrupting interaction | L474A

Variants of: B1
Details: with mtap2_mouse Map2, P20357
Remark: another data set of the same source

Row | effect of a mutation on the interaction | Variant
2 | disrupting interaction | L461A

Variants of: B1
Details: with mtap2_mouse Map2, P20357
Remark: another data set of the same source

Row | effect of a mutation on the interaction | Variant
3 | disrupting interaction | L477A
